Source: patent publication US7387779B2, “Anti-angiogenic proteins and fragments and methods of use thereof” (Beth Israel Deaconess Medical Center, priority 1998, dated 2008)

B1: endostatin: tumor associated angiogenesis inhibitor used as comparator (protein, UniProt P39060 1572-1754, looked up)
Endostatin: HSHRDFQPVLHLVALNSPLSGGMRGIRGADFQCFQQARAVGLAGTFRAFLSSRLQDLYSIVRRADRAAVPIVNLKDELLFPSWEALFSGSEGPLKPGARIFSFDGKDVLRHPTWPQKSVWHGSDPNGRRLTESYCETWRTEAPSATGQASSLLGGRLLGQSAASCHHAYIVLCIENSFMTASK
modifications: Endostatin
B2: Tum-1: residues 54 to 244 of Tumstatin, lacking the N-terminal 53 amino acids (SEQ ID NO:22) (protein)
chain: QRAHGQDLGTLGSCLQRFTTMPFLFCNVNDVCNFASRNDYSYWLSTPALMPMNMAPITGRALEPYISRCTVCEGPAIAIAVHSQTTDIPPCPHGWISLWKGFSFIMFTSAGSEGTGQALASPGSCLEEFRASPFLECHGRGTCNYYSNSYSFWLASLNPERMFRKPIPSTVKAGELEKIISRCQVCMKKRH
modifications: Tum-1 (Tumstatin N-53) (amino acids 54-244 of SEQ ID NO10)
B3: Canstatin: NC1 domain of the α2 chain of Type IV collagen (SEQ ID NO:6) (protein, listed as Homo sapiens)
chain: VSIGYLLVKHSQTDQEPMCPVGMNKLWSGYSLLYFEGQEKAHNQDLGLAGSCLARFSTMPFLYCNPGDVCYYASRNDKSYWLSTTAPLPMMPVAEDEIKPYISRCSVCEAPAIAIAVHSQDVSIPHCPAGWRSLWIGYSFLMHTAAGDEGGGQSLVSPGSCLEDFRATPFIECNGGRGTCHYYANKYSFWLTTIPEQSFQGSPSADTLKAGLIRTHISRCQVCMKNL
B4: Tumstatin: NC1 domain of the α3 chain of type IV collagen, residues 1-244 (SEQ ID NO:10) (protein, listed as Homo sapiens)
chain: GLKGKRGDSGSPATWTTRGFVFTRHSQTTAIPSCPEGTVPLYSGFSFLFVQGNQRAHGQDLGTLGSCLQRFTTMPFLFCNVNDVCNFASRNDYSYWLSTPALMPMNMAPITGRALEPYISRCTVCEGPAIAIAVHSQTTDIPPCPHGWISLWKGFSFIMFTSAGSEGTGQALASPGSCLEEFRASPFLECHGRGTCNYYSNSYSFWLASLNPERMFRKPIPSTVKAGELEKIISRCQVCMKKRH
B5: Tumstatin-44-131: residues 44 to 131 of full-length Tumstatin (SEQ ID NO:33) (protein)
chain: FSFLFVQGNQRAHGQDLGTLGSCLQRFTTMPFLFCNVNDVCNFASRNDYSYWLSTPALMPMNMAPITGRALEPYISRCTVCEGPAIAI
modifications: Tumstatin-45-132 (amino acids 45-132 of SEQ ID NO10)
B6: Can-1: N-terminal 114 amino acids of full-length Canstatin (protein, listed as Homo sapiens)
chain: VSIGYLLVKHSQTDQEPMCPVGMNKLWSGYSLLYFEGQEKAHNQDLGLAGSCLARFSTMPFLYCNPGDVCYYASRNDKSYWLSTTAPLPMMPVAEDEIKPYISRCSVCEAPAIA

System: C-PAE cells
Assay: Annexin V-FITC apoptosis assay
Assay type: cell-based, bovine
Settings: for IC50, induction of endothelial cell apoptosis: 10% FBS; for Apo (Annexin V-FITC assay): Table 4
Description: Fifty thousand C-PAE cells were added to each well of a 6-well tissue culture plate in DMEM supplemented with 10% FBS for 12 hours. Fresh medium together and either 5 μg/ml Arresten or 40 ng/ml TNFα (positive control) was added at 2, 4 and 6 hour time points. Control wells received an equal of volume of PBS. Detached cells and adherent cells were pooled together and centrifuged at 1500 rpm. Cells were washed with binding buffer (Clontech, Palo Alto, Calif., USA), and phosphatidyl-serine (PS) externalization, an indicator of apoptosis, was measured by labeling with FITC-labeled annexin V (Clontech) according to manufacturer's instructions. Annexin-FITC labeled cells were counted using a FACStar Plus flow cytometer (Becton-Dickinson, Waltham, Mass., USA). For each treatment, 10,000 cells were counted and stored. […] Relative to controls, the percentage of annexin-V-stained (apoptotic) cells increased to about 27% at 2 hours, and near 20% at 4 and 6 hours for the positive control, TNFα. For Arresten-treated cells, the percentage of apoptotic cells was about 18% at 2 hours, and about 23% at 4 and 6 hours.
Annexin V-FITC Labeling. In order to establish apoptosis as the potential mode of action for Canstatin, Annexin V-FITC was used to label externalized phosphatidylserine (PS), to assess apoptotic cells. 0.5×10^6 C-PAE cells, PC-3, 786-O and HEK 293 cells were added to each well of a 6 well tissue culture plate in 10% FBS supplemented DMEM (BioWhittaker, Walkersville, Md., USA) overnight. The next day, fresh medium was added to all wells together with 40 ng/ml TNF-α (positive control) or 15 μg/ml Canstatin. Control cells received an equal volume of PBS. After 24 hours of treatment, medium containing detached cells was collected and attached cells were trypsinized and combined with detached cells and centrifuged at 3,000×g. Cells were then washed and phosphatidyl-serine externalization (an early apoptotic indicator) was measured by labeling with FITC-labeled annexin V (Clontech, Palo Alto, Calif., USA) according to the manufacturer's instructions. Annexin V-FITC-labeled cells were counted using a FAC Star Plus flow cytometer (Becton-Dickenson, Waltham, Mass., USA). For each treatment 15,000 cells were counted and stored in listmode.
C-PAE cells (0.5×10^6 per well) were seeded onto a 6-well plate in 10% FCS supplemented DMEM. The next day, fresh medium containing 10% FCS was added with either 80 ng/ml of TNF-α (positive control) or Tumstatin ranging from 0.02 to 20 μg/ml. Control cells received an equal volume of PBS. After 18 hours of treatment, medium containing floating cells was collected, and attached cells were trypsinized and centrifuged together with floating cells at 3,000×g. The cells were then washed in PBS and resuspended in binding buffer (10 mM HEPES/NaOH, pH 7.4, 140 mM NaCl, 2.5 mM CaCl2). Annexin V-FITC (Clontech, Palo Alto, Calif., USA) was added to a final concentration of 150 ng/ml, and the cells were incubated in the darkness for 10 minutes. The cells were washed again in PBS and resuspended in binding buffer. Annexin V-FITC labeled cells were counted using a FACStar Plus flow cytometer (Becton-Dickinson, Waltham, Mass., USA). For each treatment, 15,000 cells were counted and stored in listmode.
Apoptosis was measured by Annexin V-FITC assay, using the ApoAlert kit (Clontech, Palo Alto, Calif., USA). Propidium iodide was used to stain the nuclei of cells that had died by ways other than apoptosis.
The assay was performed as described above, by treating C-PAE cells with Tumstatin-44-131 for 18 hours. Control cells received PBS.

| Molecule | IC50, induction of endothelial cell apoptosis | Apo (Annexin V-FITC assay) | induction of apoptosis (concentrations above 1 μg/ml) | also measured |
| --- | --- | --- | --- | --- |
| B1 | no activity | – | – | – |
| B2 | about 5 μg/ml | 5 µg | – | – |
| B3 | – | – | induced apoptosis | induction of apoptosis (15 μg/ml Canstatin, 24 hours): specifically induce apoptosis of endothelial cells |
| B4 | – | 10 µg | – | annexin fluorescence (2 μg/ml, 18 hours): mild shift; annexin fluorescence (20 μg/ml, 18 hours): distinct shift of annexin fluorescence peak; annexin fluorescence (concentrations below 0.2 μg/ml): did not demonstrate any annexin V positivity |
| B5 | – | active | – | annexin fluorescence (5 μg/ml Tumstatin-44-131, 18 hours): distinct shift of the fluorescence intensity peak |
| B6 | – | – | induced apoptosis | induction of apoptosis (concentrations of less than 1 μg/ml): most potent in inducing apoptosis |
